Assay results from the nanobody polyreactivity screen of Harvey et al. (2022).

Test: yeast display, Sf9 membrane polyspecificity reagent, FACS + sequencing; frameworks hold sequencing errors
How it was run: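 A synthetic nanobody library was expressed on Saccharomyces cerevisiae BJ5465 by galactose induction for 36–48 hours. The library was stained for 1 hour at 4 °C with 10% biotinylated, detergent-solubilized Sf9 membrane reagent and enriched with streptavidin microbeads before FACS. Low and high (top ~1%) gates were set on anti-HA fluorescence for expression and streptavidin fluorescence for reagent binding, and each polyreactivity label reflects the gate of origin.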
For “QVQLVESGGGLVQAGGSLRLSCAASGFIFATYAMGWYRQAPGKDRELVAAISRSGGSTYYADSVKGRFTISRDTAKNTVYSQMNCLKPEDTAVYYCAADSDPAPPDYDYWGQGTQVTVSS”, the “polyreactivity (PSR sort gate)” value was “high polyreactivity”.
For “QVQLVESGGGLVQAGGSLRLSCAASGFIFATYDMGWYRQAPGKERELVAAIDSDGSTNYADSVKGRYTISRDNAKNTVYLQMNSLKPEDTEVYYCAADRFQWGFWWLEYWGQGTQVTVSS”, the “polyreactivity (PSR sort gate)” value was “high polyreactivity”.
In the case of “QVQLVESGGGLVQAGGSLRLSCAASGFIFATYVMGWYRQAPGKERELVAAISWSGSSTFYADSVKGRFTISRDNAKNTVYLQMNSLKPEDTAVYYCAALGDYVGNDYWGQGTQVTVSS”, the “polyreactivity (PSR sort gate)” value is reported as “high polyreactivity”.
For “QVQLVESGGGLVQAGGSLRLSCAASGFIFAYNAMGWYRQAPGKERELVAAISIDTSTYYADSVKGRFTISRDNAKNTVYLQMNSLKPEDTAVYYCAADHVPFRLTELYYWGQGTQVTVSS”, the “polyreactivity (PSR sort gate)” value was “low polyreactivity”.
In the case of “QVQLVESGGGLVQAGGSLRLSCAASGFIFAYYAMGWYRQAPGKERELVAAISSSGGRTYYADSVKGRFTISRDNAKNTVYLQMNSLQPEDTAVYYCAATLSYYVGVRYDYWGQGTQVTVSS”, the “polyreactivity (PSR sort gate)” value is reported as “high polyreactivity”.
In the case of “QVQLVESGGGLVQAGGSLRLSCAASGFIFAYYAMGWYRQAPGKERELVAAITIDGSTNYADSVKGRFTISRDNAKNTVYVQMNSLKPEDSAVYYCAAAEHPPVWYGYWGQGTQVTVSS”, the “polyreactivity (PSR sort gate)” value is reported as “low polyreactivity”.
For “QVQLVESGGGLVQAGGSLRLSCAASGFIFAYYAMGWYRQAPGKERELVAGNSGDGSTNYADSVKGRFTISRDNAKNTVYLQMNSLKPEDTAVYYCAAATGVGLEYDYWGQGTQVTVSS”, the “polyreactivity (PSR sort gate)” value was “low polyreactivity”.
With “QVQLVESGGGLVQAGGSLRLSCAASGFIFAYYAMGWYRQAPGKERELVARITRGGRTYYADSVKGRFTISRDNAKNTVYLQMNSLKPEDTAVYYCATTGSSYFHSFEYDYWGQGTQVTVSS” the “polyreactivity (PSR sort gate)” value was “low polyreactivity”.
With “QVQLVESGGGLVQAGGSLRLSCAASGFIFAYYVMGWYRQAPGKERELVAAISRGGGSTYYADSVKGRFTISRDNAKNTVYLQMNSLKPEDTAVYYCATYSHALRYDYWGQGTQVTVSS” the “polyreactivity (PSR sort gate)” value was “high polyreactivity”.
In the case of “QVQLVESGGGLVQAGGSLRLSCAASGFIFDAYAMGWYRQAPGKERELVAAISSRGGSTYYADSVKGRFTISRDNAKNTVYLQMNSLKPEDTAVYYCAAPWYQGLDYWGQGTQVTVSS”, the “polyreactivity (PSR sort gate)” value is reported as “high polyreactivity”.
In the case of “QVQLVESGGGLVQAGGSLRLSCAASGFIFDDNAMGWNRQAHGKERELVAAITSGGGSTYYADSVKGRFTISRDNAKNTVYLQLNSLKPEDTAVYYCNAVPSQHDEFDYWGQGTQVSVSS”, the “polyreactivity (PSR sort gate)” value is reported as “low polyreactivity”.
For “QVQLVESGGGLVQAGGSLRLSCAASGFIFDFYTIGWYRQAPGKEWELVAAITNGGSTYYADSVKGRFTISRVNAKNTVYLQMNSLKPEDTAVYYCAAYYRSRHHGYDSWGQGTQVTVSS”, the “polyreactivity (PSR sort gate)” value was “low polyreactivity”.
For “QVQLVESGGGLVQAGGSLRLSCAASGFIFDGYAMGWYRQAPGKERELVAAIDSGGDRTYYADSVKGRFTISRDNAMNTVYLQMNSLKPEDTAVYYCAADSSDPTGYDYWGQGTQVTVSS”, the “polyreactivity (PSR sort gate)” value was “low polyreactivity”.
For “QVQLVESGGGLVQAGGSLRLSCAASGFIFDGYTMGRYRQAPGKERELVAAISRSGGRTYYADSVKGRFRISRDNAKNTVYLQMNSLKPEDTAVYYCAVRYRLYSQTVASDYGYWGQGTQVTVSS”, the “polyreactivity (PSR sort gate)” value was “high polyreactivity”.
With “QVQLVESGGGLVQAGGSLRLSCAASGFIFDGYTMGWYRQAPGKERELVAAISRSGGRTYYADSVKGRFTISRDNAKNTVYLQMNSLKPEDTAVYYCAVRYRQYSQTVASDYGYWGQGTQVTLSS” the “polyreactivity (PSR sort gate)” value was “high polyreactivity”.
For “QVQLVESGGGLVQAGGSLRLSCAASGFIFDIYAMGWYRQAPGKERELVAAITWNSGSTHYADSVKGRITISRDNAKNTVYLQMNSLKPEDTAVYYCAADEVTYAYYPYDYWGQGTQVTVSS”, the “polyreactivity (PSR sort gate)” value was “low polyreactivity”.
In the case of “QVQLVESGGGLVQAGGSLRLSCAASGFIFDLYAMGWSRQAPGKERELVAVISFDGGSTYYADSVKGRFTISRDNAKNTVYLQMNSLKPEDTAVYYCNTYAGLVSPSDLYDYWGQGTQVTVSS”, the “polyreactivity (PSR sort gate)” value is reported as “low polyreactivity”.
For “QVQLVESGGGLVQAGGSLRLSCAASGFIFDNNAMGWYRQAPGKEREFVAAISGSGGSTYYADSVKGRFTISRDNAKNTVYLQMNSLKPEDTAVYYCAAPIPDYTYIYPAYDDYWGQGTQVTVSS”, the “polyreactivity (PSR sort gate)” value was “low polyreactivity”.
In the case of “QVQLVESGGGLVQAGGSLRLSCAASGFIFDPYAMGWYRQAPGTERELVASINTRGDRTSYADSVKGRFTISRDNAKNTVYLQMNSLKPEDTAVYYCNADAVDQVGPDDDYWGQGTQVTVSS”, the “polyreactivity (PSR sort gate)” value is reported as “low polyreactivity”.
In the case of “QVQLVESGGGLVQAGGSLRLSCAASGFIFDQYAMGWYRQAPGKERELVATINWSGGRTYYADSVKGRFTISRDNAKNTVYLQMNSLKPEDTAVYYCAADTYRTKLHSFRTGSGYDYWGQGTQVTVSS”, the “polyreactivity (PSR sort gate)” value is reported as “low polyreactivity”.
In the case of “QVQLVESGGGLVQAGGSLRLSCAASGFIFDRNAMGWYRQAPGKERELVAAISVSGGNTYYADSVKGRFTISRDNAKNTVYLQMNSLKPEDTAVYYCAASRYHSTRGDYWGQGTQVTVSS”, the “polyreactivity (PSR sort gate)” value is reported as “high polyreactivity”.
For “QVQLVESGGGLVQAGGSLRLSCAASGFIFDSYAMGWYRQAPGKERELVAAISWSGGRTYYADSVKGRFTISRDNAKNTVFLQMNSLKPEDSAVYYCAADTWFGMDYWGQGTEVTVSS”, the “polyreactivity (PSR sort gate)” value was “high polyreactivity”.
For “QVQLVESGGGLVQAGGSLRLSCAASGFIFDSYAMGWYRQAPGKERELVAAISYSAGSTSYADSVKGRFTISRDNAKNTVYLQMNSLKPEDTAVYYCNARYYPLYSNSYYSWGQGTQVTVSS”, the “polyreactivity (PSR sort gate)” value was “low polyreactivity”.
With “QVQLVESGGGLVQAGGSLRLSCAASGFIFDSYAMGWYRQAPGKESELVAAINWNGGRTYYADSVRGRFTISRDNAKNTVYLQMNSLKPEDTAVYYCNAPGIHLGYYRFGYWGQGTQVTVSS” the “polyreactivity (PSR sort gate)” value was “high polyreactivity”.
For “QVQLVESGGGLVQAGGSLRLSCAASGFIFDSYVMGWYRQAPGKERELVAAISRRNSSTYYADSVKGRFTNSRDNAKNTVYLQMNSLKPEDTAVYYCAAKYLRAYGYWGQGTQVTVSS”, the “polyreactivity (PSR sort gate)” value was “high polyreactivity”.
With “QVQLVESGGGLVQAGGSLRLSCAASGFIFDTYAMGWYRQAPGKERELVATINDRGDSTSYADSVKGRFTISRDNAKNTVYLQMNSLKPEDTAVYYCARTWGLRYRWSYGRSRYNYWGQGTQVTVSS” the “polyreactivity (PSR sort gate)” value was “low polyreactivity”.
For “QVQLVESGGGLVQAGGSLRLSCAASGFIFDVYAMGWYRQAPGKERELVAAISSSGGRTYYADSVKGRFTISRDNAKNTVYLQMNSLKPEDSAVYYCAAKTHSRTKVYTADYWGQGTQVTVSS”, the “polyreactivity (PSR sort gate)” value was “high polyreactivity”.
With “QVQLVESGGGLVQAGGSLRLSCAASGFIFDVYAMGWYRQAPGNERELVATISSGDSTYYADSVKGRFTISRDNAKNTVYLQMNSLKPEDTAVYYCNTTEHKYVSSFEYGYWGQGTQVTVSS” the “polyreactivity (PSR sort gate)” value was “low polyreactivity”.
In the case of “QVQLVESGGGLVQAGGSLRLSCAASGFIFDYYAMGWYRQAPGKERELVAVINQSGTSTYYADSVKGRFTISRDNAKNTVYLQMNSLKPEDTAVYYCSVDYGTPVYWDEMYYWGQGTQVTVSS”, the “polyreactivity (PSR sort gate)” value is reported as “low polyreactivity”.
With “QVQLVESGGGLVQAGGSLRLSCAASGFIFDYYMGWYRQAPGKERELVARISYTGGSTYYADSVKGRFTISRDNAKNTVYLQMNSLNPEDTAVYYCATRGAEAERFASYDFDYWGQGTQVTVSS” the “polyreactivity (PSR sort gate)” value was “low polyreactivity”.
For “QVQLVESGGGLVQAGGSLRLSCAASGFIFEDYAMGWYRQAPGKERELVAAIRSNDDSTYYADSVKGRFTISRDNSKNTVYLHMNSLKPEDTAVYYCNKGLRRWSTRSHYYYWGQGTQVTVSS”, the “polyreactivity (PSR sort gate)” value was “high polyreactivity”.
In the case of “QVQLVESGGGLVQAGGSLRLSCAASGFIFEDYAMGWYRQAPGKERELVAAITWRGGRTYYADSVKGRFTISRDNAKNTVYLQMNSLKPEDTAVYYCRPQVYSYASRYGYWGQGTQVTVLS”, the “polyreactivity (PSR sort gate)” value is reported as “low polyreactivity”.
In the case of “QVQLVESGGGLVQAGGSLRLSCAASGFIFEHYAMGWYRQAPGKEREMVARISWRGGSTYYADSVKGRFTISRDNAKNTVYLQMNSLKPEDTAVYYCNAQEVVYFGYYPSDYWGQGTQVTVSS”, the “polyreactivity (PSR sort gate)” value is reported as “low polyreactivity”.
With “QVQLVESGGGLVQAGGSLRLSCAASGFIFETNAMGWYRQAPGNERELVAAISSRGGSTYYADSVKGRFTISRDNAKNTVYLQMNSLKPEDTAVYYCAAKLVVSYGQEYDYWGQGTQVTVSS” the “polyreactivity (PSR sort gate)” value was “low polyreactivity”.
With “QVQLVESGGGLVQAGGSLRLSCAASGFIFEYYAMGGYRQAPGKERELVAAISGGGRTYYADSVKGRFTISRDNAKNTVYLQMNSLKPEDTAVYYCAAGYAYRGYWVNRITRDGYWGQGTQVTVSS” the “polyreactivity (PSR sort gate)” value was “high polyreactivity”.
In the case of “QVQLVESGGGLVQAGGSLRLSCAASGFIFEYYAMGWYRQAPGKERELVAAISSGGGRTYYADSVKGRFTISRDNAKNTVYLQMNSLKPEDTAVYYCAAGFYVDYQLYEYWGQGTQVTVSS”, the “polyreactivity (PSR sort gate)” value is reported as “high polyreactivity”.
With “QVQLVESGGGLVQAGGSLRLSCAASGFIFEYYAMGWYRQAPGKERELVAAISSSGGSTYYADSVKGRFTISRDNAKITVYLQINSLKPEDTAVYYCAKDYAPSAKKLHYWGQGTQVTVSS” the “polyreactivity (PSR sort gate)” value was “low polyreactivity”.
In the case of “QVQLVESGGGLVQAGGSLRLSCAASGFIFFNYAMGWYRQAPGKERELVAVIDRSGGTTYYADSVKGRFTISRDNAKNTVYLQMNSLKPEDTAVYYCNADDFTYPSGWGFIYDYWGQGTQVTVSS”, the “polyreactivity (PSR sort gate)” value is reported as “low polyreactivity”.
In the case of “QVQLVESGGGLVQAGGSLRLSCAASGFIFFPYTMGWYRQAPGKERELVAAITNGGSTSYADSVKGRFTISRDNAKNTVYLQMNSLKPEDTAVYYCAADLGRNLLHTYYYWGQGTQVTVSS”, the “polyreactivity (PSR sort gate)” value is reported as “low polyreactivity”.
In the case of “QVQLVESGGGLVQAGGSLRLSCAASGFIFFQYAMGWYRQAPGKERELVAAISSGGNTYYADSVKGRFTISRDNAKNTVYLQMNSLKPEDTAVYYCAAYYPLRKGYGYWGQGTQVTVSS”, the “polyreactivity (PSR sort gate)” value is reported as “high polyreactivity”.
In the case of “QVQLVESGGGLVQAGGSLRLSCAASGFIFFRNAMGWYRQAPGKERELVAAISGSGGSTYYADSVKGRFTISRDNAKNTVYLQLNSLKPEDTAVYYCAAAGPFNYDYWGQGTHVTVSS”, the “polyreactivity (PSR sort gate)” value is reported as “high polyreactivity”.
